T1: P. falciparum 7G8 AMA1 recombinant allelic protein (Plasmodium falciparum, UniProt P50492 83-531)
T1 sequence: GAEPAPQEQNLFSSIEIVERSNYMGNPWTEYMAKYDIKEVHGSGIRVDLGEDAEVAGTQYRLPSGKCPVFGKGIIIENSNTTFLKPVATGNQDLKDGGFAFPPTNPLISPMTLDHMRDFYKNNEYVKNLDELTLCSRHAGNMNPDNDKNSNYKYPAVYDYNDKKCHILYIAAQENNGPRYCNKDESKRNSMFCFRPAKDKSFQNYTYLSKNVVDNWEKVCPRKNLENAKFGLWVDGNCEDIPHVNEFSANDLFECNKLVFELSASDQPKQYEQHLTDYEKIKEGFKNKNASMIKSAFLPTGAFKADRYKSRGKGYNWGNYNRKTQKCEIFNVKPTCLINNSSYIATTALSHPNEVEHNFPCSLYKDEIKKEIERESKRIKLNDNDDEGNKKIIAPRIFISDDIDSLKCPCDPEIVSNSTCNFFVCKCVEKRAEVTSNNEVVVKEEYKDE

T2: P. falciparum FVO AMA1 recombinant allelic protein (Plasmodium falciparum, UniProt P50490 83-531)
T2 sequence: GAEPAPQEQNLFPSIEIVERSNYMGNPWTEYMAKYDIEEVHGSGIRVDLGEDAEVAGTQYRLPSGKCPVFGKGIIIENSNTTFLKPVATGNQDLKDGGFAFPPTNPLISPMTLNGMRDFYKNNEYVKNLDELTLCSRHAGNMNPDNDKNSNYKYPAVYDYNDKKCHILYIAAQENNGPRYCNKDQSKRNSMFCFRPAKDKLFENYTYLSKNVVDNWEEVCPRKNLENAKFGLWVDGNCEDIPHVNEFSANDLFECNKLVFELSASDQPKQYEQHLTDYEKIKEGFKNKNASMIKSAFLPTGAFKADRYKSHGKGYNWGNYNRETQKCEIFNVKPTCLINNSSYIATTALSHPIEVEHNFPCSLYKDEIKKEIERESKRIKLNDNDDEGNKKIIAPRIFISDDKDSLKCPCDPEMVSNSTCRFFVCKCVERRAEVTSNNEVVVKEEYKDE

T3: P. falciparum HB3 AMA1 recombinant allelic protein (Plasmodium falciparum, UniProt P50491 83-531)
T3 sequence: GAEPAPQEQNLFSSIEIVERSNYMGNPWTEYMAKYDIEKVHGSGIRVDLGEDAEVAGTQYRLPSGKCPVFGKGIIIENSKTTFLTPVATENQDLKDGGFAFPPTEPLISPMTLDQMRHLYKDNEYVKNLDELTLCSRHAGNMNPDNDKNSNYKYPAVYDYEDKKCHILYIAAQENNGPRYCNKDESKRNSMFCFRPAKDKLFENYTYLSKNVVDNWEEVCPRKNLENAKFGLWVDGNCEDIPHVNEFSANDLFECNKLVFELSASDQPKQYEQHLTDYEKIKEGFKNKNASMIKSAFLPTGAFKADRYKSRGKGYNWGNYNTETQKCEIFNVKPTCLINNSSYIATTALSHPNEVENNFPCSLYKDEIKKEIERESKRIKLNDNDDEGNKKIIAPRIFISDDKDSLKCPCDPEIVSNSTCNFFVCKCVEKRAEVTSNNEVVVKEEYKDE

T4: P. falciparum W2mef AMA1 recombinant allelic protein (Plasmodium falciparum, UniProt P50492 83-531)
T4 chain: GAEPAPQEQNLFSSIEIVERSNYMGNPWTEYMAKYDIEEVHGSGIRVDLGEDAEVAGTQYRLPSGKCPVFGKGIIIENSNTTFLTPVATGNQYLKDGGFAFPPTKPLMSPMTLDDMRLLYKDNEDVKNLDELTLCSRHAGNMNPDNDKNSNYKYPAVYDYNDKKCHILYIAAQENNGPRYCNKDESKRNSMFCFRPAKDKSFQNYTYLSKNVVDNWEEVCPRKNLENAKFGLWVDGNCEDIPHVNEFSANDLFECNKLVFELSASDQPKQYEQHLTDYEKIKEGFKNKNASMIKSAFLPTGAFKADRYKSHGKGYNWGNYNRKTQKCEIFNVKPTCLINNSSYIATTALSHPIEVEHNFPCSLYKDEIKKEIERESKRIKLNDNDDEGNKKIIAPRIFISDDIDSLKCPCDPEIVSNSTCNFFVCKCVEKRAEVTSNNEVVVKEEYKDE

T5: P. falciparum 3D7 AMA1 recombinant allelic protein (Plasmodium falciparum, UniProt P22621 83-531)
T5 chain: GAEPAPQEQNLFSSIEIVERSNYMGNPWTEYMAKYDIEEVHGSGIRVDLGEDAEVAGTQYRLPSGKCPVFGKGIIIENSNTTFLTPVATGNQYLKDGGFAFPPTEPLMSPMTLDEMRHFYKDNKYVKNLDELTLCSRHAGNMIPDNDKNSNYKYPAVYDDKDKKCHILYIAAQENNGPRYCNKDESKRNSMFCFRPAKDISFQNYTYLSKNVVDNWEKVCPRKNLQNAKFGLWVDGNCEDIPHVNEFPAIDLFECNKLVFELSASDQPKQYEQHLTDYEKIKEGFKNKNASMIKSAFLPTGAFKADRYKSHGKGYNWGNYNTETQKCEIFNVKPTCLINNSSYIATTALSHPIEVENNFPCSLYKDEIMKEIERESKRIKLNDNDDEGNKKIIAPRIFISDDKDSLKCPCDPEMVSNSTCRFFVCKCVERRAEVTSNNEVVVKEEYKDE


Experiments:
[1] = target: T6, AMA1 on P. falciparum 3D7 strain parasites (Plasmodium falciparum); experiment: cell-based or functional assay
[2] = target: T6, AMA1 on P. falciparum 3D7 strain …; experiment: cell-based or functional assay; remark: listed apart in the source
[3] = target: T1, P. falciparum 7G8 AMA1 recombinant …; experiment: dot blot against 7 AMA1 allelic proteins
[4] = target: T2, P. falciparum FVO AMA1 recombinant …; experiment: dot blot against 7 AMA1 allelic proteins
[5] = target: T3, P. falciparum HB3 AMA1 recombinant …; experiment: dot blot against 7 AMA1 allelic proteins
[6] = target: T4, P. falciparum W2mef AMA1 recombinant …; experiment: dot blot against 7 AMA1 allelic proteins
[7] = target: T5, P. falciparum 3D7 AMA1 recombinant …; experiment: dot blot against 7 AMA1 allelic proteins

Binder | Inhibition (GIA at 1 mg/ml against the 3D7 target strain) [1] | IC30 concentration (30% inhibition against the 3D7 target parasites, GIA) [2] | binding result [3] | binding result [4] | binding result [5] | binding result [6] | binding result [7]
monoclonal antibody 1B10 (antibody, V domains shown) VH: EVQLQESGPGLVQPSQSLSITCTVSGFSLNMYGVHWVRQSPGKGLEWLGVIWSGGTTDYNAAFISRLSINRDNSKSQVFFKMNSLQTDDTAIYYCVRNNGYYVDAMDYWGQGTSVAVSS VL: DVVMTQTPLSLPVSLGDQASISCRSSQSLVHSNGNTYLHWYLQRPGQSPKLLIYKVSNRFSGVPDRFSGSGSGTDFTLKISRVEAEDLGVYFCSQSTLGPTFGGGTKLEMQR | 65% | 150 µg/mL | – | – | – | – | –
monoclonal antibody 4E8 (antibody, V domains shown) VH: EVQLQESGPGLVQPSQSLSITCTVSDFSLIMYGVHWVRQSPGKGLEWLGVIWSGGSTDYNAAFISRLSISKDNSKSQVFFKMNSLQADDTAIYYCARNNGYYVDAMDYWGQGTSVTVSS VL: DVVMTQTPLSLPVSLGDQASISCRSSQSLVHNNGNTYLHWYLQKPGQSPKLLIYKVSNRFFGVPDRFSGSGSGTDFTLKISRVEAEDLGVYFCSQSTHVPTFGGGTKLEIKR | 67% | 150 µg/mL | – | – | – | – | –
monoclonal antibody 4E11 (antibody, V domains shown) VH: EVQLQESGPGLVRPSQSLSITCTVSGFSLPLYGVHWVRQSPGKGLEWLGVIWSGGSTDYNAAFVSRLSISKDNSKSQVFFEMNSLQADDTATYYCARNNGYYVDAMDYWGQGTSVTVSS VL: DVVMTQTPLSLPVSLGDQASISCRSSQSLVHSNGNTYLHWYLQKPGQSPKLLIFKVSNRFSGVPDRFSGSGSGTDFTLQISRVEAEDLGFYFCSQSTHVPTFGGGTKLEIKR | 62% | 220 µg/mL | – | – | – | – | –
monoclonal antibody 1E10 (antibody, V domains shown, Mouse monoclonal raised against QV, purified from ascites on Protein G; also called mAb 1E10; Monoclonal 1E10) VH: EVQLQESGAELAKPGASVKLSCKASGYTFTNYLMHWIKQRPGQGLEWIGYINHGSGYTNYNQKFIDRATLTADKSSSTAYMQLRSLTYEDSAVYYCVHGYFDVWGTGTTVTVSS VL: QIVLTQSPTIMSASPGEKVTMTCSASSSVTYMHWYQQKPGTSPKRWIYDTSKLASGVPARFSGSGSGTSYSLTISSMEAEDAATYYCHQRSSYPTFGGGTKLEIKR | 20% | 1900 µg/mL | binds | binds | binds | binds | binds
